# B1: HDV Ribozyme (parent)
# chain: GGCCGGCAUGGUCCCAGCCUCCUCGCUGGCGCCGGCUGGGCAACAUUCCGAGGGGACCGUCCCCUCGGUAAUGGCGAAUGGGACCCA
# Variants of: B1
# Assay: self-cleavage, relative activity (ratio to wild type); higher = more cleavage; co-transcriptional
row,Variant,self-cleavage
1,GGCCGGCAUGGUCCAAGCCUCCUCGCUGGCGCCGGCUGGGCAACAAUCCGAGGGGACCGUCCCCUCGGUAAUGGCGAAUGGGACCCA,0.361
2,GGCCGGCAUGGUCCAAGCCUCCUCGCUGGCGCCGGCUGGGCAACACUCCGAGGGGACCGUCCCCUCGGUAAUGGCGAAUGGGACCCA,0.653
3,GGCCGGCAUGGUCCAAGCCUCCUCGCUGGCGCCGGCUGGGCAACAUUCCGACGGGACCGUCCCCUCGGUAAUGGCGAAUGGGACCCA,0.655
4,GGCCGGCAUGGUCCAAGCCUCCUCGCUGGCGCCGGCUGGGCAACAUUCCGAAGGGACCGUCCCCUCGGUAAUGGCGAAUGGGACCCA,0.708
5,GGCCGGCAUGGUCCAAGCCUCCUCGCUGGCGCCGGCUGGGCAACAUACCGAGGGGACCGUCCCCUCGGUAAUGGCGAAUGGGACCCA,0.522
6,GGCCGGCAUGGUCCAAGCCUCCUCGCUGGCGCCGGCUGGGCAACAUCCCGAGGGGACCGUCCCCUCGGUAAUGGCGAAUGGGACCCA,0.317
7,GGCCGGCAUGGUCCAAGCCUCCUCGCUGGCGCCGGCUGGGCAACAUGCCGAGGGGACCGUCCCCUCGGUAAUGGCGAAUGGGACCCA,0.35
8,GGCCGGCAUGGUCCAAGCCUCCUCGCUGGCGCCGGCUGGGCAACAUUCCGAGGGGACCGUCCCCACGGUAAUGGCGAAUGGGACCCA,0.388
9,GGCCGGCAUGGUCCAAGCCUCCUCGCUGGCGCCGGCUGGGCAACAUUCCGAGGGGACCGUCCCCCCGGUAAUGGCGAAUGGGACCCA,0.519
10,GGCCGGCAUGGUCCAAGCCUCCUCGCUGGCGCCGGCUGGGCAACAUUCCGAGGGGACCGUCCCCUCGGUAAUGGCUAAUGGGACCCA,0.919
11,GGCCGGCAUGGUCCAAGCCUCCUCGCUGGCGCCGGCUGGGCAACAUUCCGAGGGGACCGUCCCCUCGGUAAUCGCGAAUGGGACCCA,0.249
12,GGCCGGCAUGGUCCAAGCCUCCUCGCUGGCGCCGGCUGGGCAACAUUCCGAGCGGACCGUCCCCUCGGUAAUGGCGAAUGGGACCCA,0.674
13,GGCCGGCAUGGUCCAAGCCUCCUCGCUGGCGCCGGCUGGGCAACAUUCCGAGUGGACCGUCCCCUCGGUAAUGGCGAAUGGGACCCA,0.808
14,GGCCGGCAUGGUCCAAGCCUCCUCGCUGGCGCCGGCUGGGCAACAUUCCGAGGGGACCGUCCCCUCGGCAAUGGCGAAUGGGACCCA,0.598
15,GGCCGGCAUGGUCCAAGCCUCCCCGCUGGCGCCGGCUGGGCAACAUUCCGAGGGGACCGUCCCCUCGGUAAUGGCGAAUGGGACCCA,0.748
16,GGCCGGCAUGGUCCAAGCCUCCUCGCUGGCGCCGGCUGGGCAACAUUCCGAGGGGACCGUCCCCUCGGUAAUGCCGAAUGGGACCCA,0.185

row,Variant,self-cleavage
1,GGCCGGCAUGGUCCAAGCCUCCUCGCUGGCGCCGGCUGGGCAACAUUCCGAGGGGACCGUCCCCUCGGUAAUGACGAAUGGGACCCA,0.174
2,GGCCGGCAUGGUCCAAGCCUCCUCGCUGGCGCCGGCUGGGCAACAUUCCGAGGGGACCGUCCCCUCGGUAAUGUCGAAUGGGACCCA,0.218
3,GGCCGGCAUGGUCCAAGCCUCCUCGCUGGCGCCGGCUGGGCAACAUUCCGAGGGGACCGCCCCCUCGGUAAUGGCGAAUGGGACCCA,0.538
4,GGCCGGCAUGGUCCAAGCCUCCUCGCUGGCGCCGGCUGGGCAACAUUCCGAGGGGACCGACCCCUCGGUAAUGGCGAAUGGGACCCA,0.623
5,GGCCGGCAUGGUCCAAGCCUCCUCGCUGGCGCCGGCAGGGCAACAUUCCGAGGGGACCGUCCCCUCGGUAAUGGCGAAUGGGACCCA,0.102
6,GGCCGGCAUGGUCCAAGCCUCCUCGCUGGCGCCGGCUGGGCAACAUUCCCAGGGGACCGUCCCCUCGGUAAUGGCGAAUGGGACCCA,0.404
7,GGCCGGCAUGGUCCAAGCCUCCUCGCUGGCGCCGGCUGGGCAACAUUCCUAGGGGACCGUCCCCUCGGUAAUGGCGAAUGGGACCCA,0.674
8,GGCCGGCAUGGUCCAAGCCUCCUCGCUGGCGCCGGCUGGGCAACAUUCCGAGGGGACCGUCCCCUCGGUAAUGGCGAAUGUGACCCA,0.232
9,GGCCGGCAUGGUCCAAGCCUCCUCGCUGGCGCCGGCUGGGCAACAUUCCGAGGGGACCGUCCCCUCGGUAAUGGCGAAUGCGACCCA,0.208
10,GGCCGGCAUGGUCCAAGCCUCCUCGCUGGCGCCGGCUGGGCAACAUUCCGAGGGGACCCUCCCCUCGGUAAUGGCGAAUGGGACCCA,0.723
11,GGCCGGCAUGGUCCAAGCCACCUCGCUGGCGCCGGCUGGGCAACAUUCCGAGGGGACCGUCCCCUCGGUAAUGGCGAAUGGGACCCA,0.0573
12,GGCCGGCAUGGUCCAAGCCGCCUCGCUGGCGCCGGCUGGGCAACAUUCCGAGGGGACCGUCCCCUCGGUAAUGGCGAAUGGGACCCA,0.19
13,GGCCGGCAUGGUCCAAGCCUCCUCGCUGGCGCCGGCUGGGCAACAUUCCGAGGGUACCGUCCCCUCGGUAAUGGCGAAUGGGACCCA,0.608
14,GGCCGGCAUGGUCCAAGCCUCCUCGCUGGCGCCGGCUGGGCAACAUUCCGAGGGCACCGUCCCCUCGGUAAUGGCGAAUGGGACCCA,0.482
15,GGCCGGCAUGGUCCAAGCCUCCUCGCUGGCGCCGGCUGGGCAACAUUCCGAGGGGACCGUCCCCUCUGUAAUGGCGAAUGGGACCCA,0.633
16,GGCCGGCAUGGUCCAAGCCUCCUCGCUGGCGCCGGCUGGGCAACAUUCCGAGGGGACCGUCCCCUCGGUAAAGGCGAAUGGGACCCA,0.107

# Source: the RNAGym collection of RNA variant scans (doi:10.7554/elife.80360)
